For this assay, the target named is T1, Nup58(239–415), entire ordered region of Nup58 from Rattus norvegicus, His6 tag cleaved (Rattus norvegicus, UniProt P70581 239-415).
T1 construct: Nup58, Rattus norvegicus, residues 239-415 (entire ordered region); source: co-expressed with Nup54 and Nup62 from a polycistronic vector; not shown: His6, N-terminal, cleaved
T1 sequence: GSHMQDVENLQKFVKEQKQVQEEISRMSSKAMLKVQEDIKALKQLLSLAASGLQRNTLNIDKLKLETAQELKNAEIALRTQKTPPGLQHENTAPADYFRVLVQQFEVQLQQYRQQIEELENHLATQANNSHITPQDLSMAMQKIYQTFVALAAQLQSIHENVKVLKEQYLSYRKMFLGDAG
The assay can be described thus: SEC; competition: preassembled triple complex (1.5 mg/ml) incubated with Nup54 (453–494) wild type or H469F/Q473L (0.6 mg/ml), then size-exclusion chromatography and SDS-PAGE of column fractions. Conditions: both partners purified.

B1: wild-type Nup54 (453–494), Nup58-cognate segment of Nup54 (domain or fragment, Rattus norvegicus, UniProt P70582 453-494, looked up)
chain: EEKYYIDADLLREIKQHLKQQQEGLSHLISIIKDDLEDIKLV
notes: also called Nup54 segment; wt Nup54 (453–494)
On to B1, for which the binding result was “binds”.

Values taken from publication PMC4513098, “Ordered Regions of Channel Nucleoporins Nup62, Nup54, and Nup58 Form Dynamic Complexes in Solution*” (The Journal of Biological Chemistry, 2015).
